# Source: patent US8088412B2, “Intralymphatic chemotherapy drug carriers” (priority 2008, dated 2012)
# Where two headings read alike, the source gives them in different places. Marks after values point to notes of the source that are not given here.
# Tests used:
# [1] = Tissue distribution after subcutaneous cisplatin or cisplatin-HA into right mammary fat pad; type: in vivo, Sprague-Dawley rats
# Description: Animals were allowed to recover with access to food and water. […] Organs and tissues were washed with 0.9% saline and frozen (−80° C.) until analysis. Plasma was separated by centrifugation from whole blood and frozen (−80° C.).
# In vitro release samples (n=3) and plasma samples (n=5) were diluted 200-fold and 10-fold, respectively, with 0.1% nitric acid for analysis. […] Lymph nodes were processed similarly using 10 mg of tissue. After digestion, samples were homogenized (Tissue Tearor, BioSpec Products Inc., Bartlesville, Okla.). All samples were centrifuged (17 000×g, 20 min), and the supernate used for analysis.
# Analysis was performed on a Varian SpectrAA GTA-110 with graphite furnace and partition tubes. Samples (21 μL) were injected using the autosampler, followed by 19 μL of 0.1% nitric acid. […] The furnace program was as follows: ramp 25 to 80° C., hold 2 s, ramp to 120° C., hold 10 s, ramp to 1000° C., hold 5 s, ramp to 2700° C., hold 2 s, cool to 25° C. over 20 s. The graphite partition tube was cleaned every 40 samples by baking at 2800° C. for 7 s. Argon was used as the injection and carrier gas.
# MDA-MB-468LN = test: Cell proliferation over 72 hrs, resazurin blue; type: cell-based, human
# Description: Preceding proliferation studies, cells were trypsinized and seeded into 96-well plates (5,000 cells/well). […] After 4 hrs, well fluorescence was measured (λex 560 nm, λem 590 nm) using a fluorophotometer (SpectraMax Gemini; Molecular Devices, Sunnyvale, Calif.). IC50 was determined as the midpoint between saline (positive) and cell-free (negative) controls for each plate.
# [2] = design: species or system Sprague-Dawley rats; conditions: rat, in vivo, sc
# Description: Sprague-Dawley rats (female, 200-250 g) were cannulated in the left jugular vein under isoflurane and allowed to recover overnight. […] Subcutaneous injections were given in the uppermost right mammary fatpad of the animal. Whole blood was withdrawn (100 μl) from the cannula at 0, 5 min, 0.5, 1, 2, 4, 6, 12, 24, 48 and 96 hrs after dosing and placed into 2-ml centrifuge tubes pretreated with heparin. The cannula was washed before and after withdrawal with saline and then heparin locked. The whole blood was centrifuged at 17,000×g for 5 mins, and the plasma was frozen at −80° C. until analysis. Animals were euthanized […]. The right ipsilateral axilla nodes (treated side), left contralateral axilla nodes (control side), and major organs (liver, kidneys, heart, spleen, lungs, brain, muscle, bladder) were excised; washed with 0.9% saline; and stored at −80° C. until analysis. […] Typically, 50 mg of tissue sample was digested using 1.5 ml of 6.7% nitric acid for 2 hours at 80° C. After digestion, samples were homogenized (Tissue Tearor; BioSpec Products Inc., Bartlesville, Okla.) and centrifuged. The supernatant and plasma samples were analyzed by AAS as described in the Synthesis section.
# In vitro release samples (n=3) and plasma samples (n=5) were diluted 200-fold and 10-fold, respectively, with 0.1% nitric acid for analysis. […]
# [3] = test system: three aggressive human breast cancer cell lines; test: Cell proliferation, Alamar blue assay, 72 hrs; type: cell-based; conditions: breast cancer cells in culture
# Description: The 10% w/w conjugate was applied to cells, and 72 hrs later, cell proliferation was determined using the Alamar blue assay (Invitrogen Corp.). […] Similarly, cisplatin conjugates were applied to breast cancer cells in culture. […] This may be due release of anticancer drugs from nanocarriers into the culture media, followed by uptake as with free drug.
# MDA-MB-231 = test: In vitro cell toxicity (DMEM, resazurin blue, 72 hrs); type: cell-based, human
# Description: (§1) Cell lines were seeded into 96-well plates (5000 cells/well) in DMEM medium supplemented with 5% FBS and 1% penicillin/streptomycin.
# MCF7 = test: as above; type: cell-based, human
# Description: as §1
# MDA-1986 cells = test: In vivo efficacy of HA-cisplatin, orthotopic HNSCC model; design: species or system Nu/Nu female athymic nude mice; conditions: subcutaneous, weekly dose of 3.3 mg/kg for 3 weeks; 5 mice
# From the text: The in vivo efficacy of HA-cisplatin was studied. All treatment began once animal HNSCC tumors reached 100 mm3 volume. Treatment commenced for 3 weeks. All animals were given 5×10^5 MDA-1986 cells in the buccal mucosa of the left cheek (which is a novel orthotopic HNSCC model I developed this year) and tumors develop in 2-3 weeks.
substance,measurement,setting,value
[PtCl(H2O)(NH3)2]OOCO-HA [HA-cisplatin],"AUC in the right (draining axillary) lymph node, greater than cisplatin in saline","[1]; 96 hrs, subcutaneous, p=0.0001",74%
same,AUC (0-96 hrs),"[1]; Bladder, subcutaneous into right mammary fatpad of female rats",194.5 µg·h/g
same,AUC (0-96 hrs),"[1]; Brain, subcutaneous into right mammary fatpad",343.7 µg·h/g
same,AUC (0-96 hrs),"[1]; Heart, subcutaneous into right mammary fatpad",465.3 µg·h/g
same,AUC (0-96 hrs),"[1]; Kidneys, subcutaneous into right mammary fatpad",668.6 µg·h/g
same,AUC (0-96 hrs),"[1]; Left lymph node (LLN), subcutaneous into right mammary fatpad",413.4 µg·h/g
same,AUC (0-96 hrs),"[1]; Liver, subcutaneous into right mammary fatpad",495.0 µg·h/g
same,AUC (0-96 hrs),"[1]; Lungs, subcutaneous into right mammary fatpad",347.3 µg·h/g
same,AUC (0-96 hrs),"[1]; Muscle, subcutaneous into right mammary fatpad",262.1 µg·h/g
same,AUC (0-96 hrs),"[1]; Plasma, subcutaneous into right mammary fatpad",186.1 µg·h/g
same,AUC (0-96 hrs),"[1]; Right lymph node (RLN), subcutaneous into right mammary fatpad, p < 0.05",776.0 ^† μg · hr/g
same,AUC (0-96 hrs),"[1]; Spleen, subcutaneous into right mammary fatpad",383.4 µg·h/g
same,distribution of cisplatin to other organs vs cisplatin,[1]; over the study period,not significantly different over the study period
same,AUC in the non-draining left lymph node (LLN) vs cisplatin in saline,[1]; p=0.12,not significantly different from cisplatin in saline
same,"plasma AUC, difference between cisplatin-HA and cisplatin",[1]; p=0.13,not a significant difference
same,serum Cmax,"[1]; subcutaneous, 3.3 mg/kg cisplatin basis, FIG. 10B",less than 3 micrograms/mL
same,tolerability in rodents,"[1]; subcutaneous, after 96 hours",well tolerated in rodents with no signs of injection site morbidity or major organ toxicity after 96 hours
same,IC50,MDA-MB-468LN; HA carriers on a Pt-basis equivalent to cisplatin,10 µg/mL
same,IC50,"MDA-MB-468LN; Pt-basis, read-out: IC50",33 µM
same,delay before plasma platinum peaked and plateaued-off,[2],2 h
same,anticancer activity compared with free cisplatin,[3],not significantly different from free cisplatin
same,IC50,MDA-MB-231; cisplatin basis,7 µg/mL
same,IC50,MDA-MB-231; read-out: IC50,23 µM
same,IC50,"MCF7; MCF-7, cisplatin basis",7 µg/mL
same,IC50,"MCF7; MCF-7, read-out: IC50",23 µM
same,response to therapy,MDA-1986 cells,2 animals had a complete response to therapy and the third (HA-cis 1) had a partial response to therapy
same,tumor growth delay,MDA-1986 cells,delayed tumor growth in all 5 animals
